Test results as given in patent US20230242902A1, “A HIGHLY ERROR-PRONE […] R[…] FOR TARGETED CONTINUOUS EVOLUTION IN VIVO” (The Regents of the University of California, priority 2017, published 2023).
Changes are numbered by the printed parent chain. Names may count otherwise.

B1: N291W: TP-DNAP1 variant (protein)
chain: MDYKDKALNDLRNVYADFDSLPLDFRQILIKDRATLLQKEDVEKKILERQEDAKKYAEYLKQSEIPERISLPNIKRHKGVSISFEETSEDMVLEPRPFIFDGLNIRCFRRETIFSLKNKILNMVKESSSFKNVSRQSVSFMYFKIFNKGKVIASTKSVNIYEDKIDERLEDLCNNFDDVLKKIIDVTYGYESLFVSETYSYVIFYAKSIYFPQPRCVNNWGNNIPNILTFDSFKLFTANKNNVSCIKQCSRFLWQKDFNTLEEMIEYKNGNICIVTPQLHINDVRDIKSFWDIRLYSESPIKTFSVIDNTITYLFYFKEHLGVIFNITKSRHDRRVTKFSPLSKFSDVKNITVCFDIESYFDPEKESNQVNIPFICCASIIYNKVIGNIVDFEGRDCVAQMIEYVVDICGELNISSVELIAHNGGGYDFHYILSSMYNPAAIKNILIRNNSFISFNFAHDGVKFSVKDSYSFLLCSLANASKAFLNEETFKKTDFPHHDLKTADDLYKVYKEWSSVNTEINHVVEKEKLLITSEHIVNFTKNDKSKTLIEWSKDYCRNDVLVLSKVWLEFKNAVEDIFNCELVDQTMTLAGLSYKLFQANMPFDVELRHPNKEDYFNMREALIGGRCISVNGIYKDVLCLDVKSLYPASMAFYDQPYGSFKRVSSRPKDELGIYYVRVTPNRNNKSNFFPIRSHNKITYNNFEESTYIAWYTNVDIDIGLSEGHNIEYIPFDSYGNIGYSWSKKGKIFEKYIKDVLYKLKIKYEKQNNKVKRNVIKIIMNSLWGKFAQKWVNFEYFIKSEDDIDFESEEAYKIWDTDFMLIKKIKESTYSSKPIQNGVFTLSWARYHMKSIWDAGAKEGAECIYSDTDSIFVHKEHFKKNAKFMLNGLKVPIIGSEVGQLELECEFDKLLCAGKKQYMGFYTYFQDGKPCIKEKKRFKGIPSNYIIPELYAHLLSGADKEAKIQFLKFRREWGSVKGYIENKTVKAT
B2: E620R: TP-DNAP1 variant (protein)
chain: B1 chain with W291N, E620R
B3: I673V, E703D: TP-DNAP1 variant (protein)
chain: B1 chain with W291N, I673V, E703D
B4: R677L: TP-DNAP1 variant (protein)
chain: B1 chain with W291N, R677L
B5: R662C: TP-DNAP1 variant (protein)
chain: B1 chain with W291N, R662C
B6: Y675L: TP-DNAP1 variant (protein)
chain: B1 chain with W291N, Y675L
B7: L295Q: TP-DNAP1 variant (protein)
chain: B1 chain with W291N, L295Q
B8: D669G, T698M: TP-DNAP1 variant (protein)
chain: B1 chain with W291N, D669G, T698M
B9: Y675H: TP-DNAP1 variant (protein)
chain: B1 chain with W291N, Y675H
B10: R677Q: TP-DNAP1 variant (protein)
chain: B1 chain with W291N, R677Q
B11: E670M, S693G: TP-DNAP1 variant (protein)
chain: B1 chain with W291N, E670M, S693G
B12: R662A: TP-DNAP1 variant (protein)
chain: B1 chain with W291N, R662A

Test system: p1
Assay: p1 copy number by p1-encoded mKate2 fluorescence
Format: cell-based, S. cerevisiae
Details: OR-Y24, measured in triplicate
Experimental: A calibration curve was established to correlate p1 copy number, determined via quantitative PCR (qPCR), with fluorescence of p1-encoded mKate2 (Table 1). Five TP-DNAP1 variants representing a wide range of copy numbers were transformed into ORY24 and passaged until w.t. p1 was displaced. The five OR-Y24 strains were grown to saturation, diluted 1:10,000 to mimic p1 fluctuation tests, and grown in triplicate 100 μL cultures and duplicate 40 mL cultures. 100 μL saturated cultures were subject to fluorescence measurement of mKate2 (ex/em=561 nm/620 nm, bandwidth=15 nm) on a flow cytometer (Invitrogen Attune NxT). Whole-cell DNA extracts were prepared from 40 mL cultures and used as templates for qPCR measurement of p1-encoded leu2 (Q180*), as described previously (Ravikumar et al., 2014). p1-encoded LEU2 was PCR amplified with qPCR-Leu2F and qPCR Leu2R; and genomic LEU3 was PCR amplified with qPCR-Leu3F and qPCR-Leu3R using SyBR Green (Fisher Scientific) master mix.
To assay p1 copy number for large-scale p1 fluctuation tests, additional replicates of OR-Y24 strains were grown from the 1:10,000 dilution in triplicate and saturated cultures were subject to fluorescence measurement via flow cytometry. Fluorescence measurements were converted to copy number with the linear calibration curve.
To assay relative p1 copy number for small-scale p1 fluctuation tests, an additional 200 μL culture of OR-Y24 strains were grown from the 1:10,000 dilution. 200 μL saturated cultures were subject to an OD600 measurement and fluorescence measurement of mKate2 (ex/em=588 nm/633 nm), using a microplate reader (TECAN Infinite M200 PRO). A linear relationship was assumed between p1 copy number and OD600-normalized mKate2 fluorescence. Copy numbers were calculated from normalization to a w.t. TP-DNAP1 control.
For a few large-scale p1 fluctuation tests, p1 copy number was assayed by the method of small scale p1 fluctuation tests (i.e. microplate reader measurement). For these experiments, mutant TP-DNAP1 p1 copy numbers were calculated by normalization to a w.t. TP-DNAP1 control. The copy number of this control was assumed to be the average w.t. TP-DNAP1 copy number from all large-scale p1 fluctuation tests that used flow cytometry measurements.
TP-DNAP1 plasmids were isolated from these strains and subject to Sanger sequencing. 210 unique variants were identified and the corresponding plasmids were re-transformed into OR-Y24. Transformed strains were passaged in SC-UH until w.t. p1 was displaced, and subject to p1 copy number measurement in triplicate. Four high copy variants were directly subject to qPCR measurements for validation. To test the suppressor activity of the G410H mutation, which yields increased p1 copy number, this amino acid change was added to several low-activity TP-DNAP1 variants. p1 copy number was similarly assayed for these strains.

Molecule | Mean fold-increase over w.t. (p1 copy number)
B1 | 2.26 fold
B2 | 2.29 fold
B3 | 1.88 fold
B4 | 1.68 fold
B5 | 1.7 fold
B6 | 1.96 fold
B7 | 2.48 fold
B8 | 1.65 fold
B9 | 2.14 fold
B10 | 1.84 fold
B11 | 1.55 fold
B12 | 1.75 fold
